Results published in the supplement of paper PMC10567573.

B1: CDC25A (parent)
chain: TVAGKHQDLKYISPEIMASVLNGK
B2: ZNF207 (parent)
chain: CHICHKKLYTGPGLAIHCMQVHKE

Variants of: B1
Experiment: protein stability index of a GFP-peptide fusion (GPS, HEK-293T) (PSI 1-6); higher = more stable
Conditions: c terminus: a fixed tail appended
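Further: lentivirally expressed fusions sorted by FACS into six bins by GFP to DsRed ratio, PSI derived from sequencing read proportions per bin multiplied by bin number.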

Protein stability index of substitutions, site by site:
V20: D 4.35; G 3.79; M 3.56; H 3.33; E 4.1; C 2.93; P 3.64; I 2.63; W 2.84; T 3.75; K 3.73; Q 3.68; L 2.84; Y 2.72; N 3.38; F 2.92; R 3.99; S 4.11
K24: P 3.26; N 3.21; Y 2.01; W 1.93; C 2.42; T 2.69; H 2.44; I 2.01; R 3.06; D 3.61; F 1.89; G 2.87; L 2.01; A 2.67; S 2.94; Q 3.4; E 3.73; V 2.09; M 2.36
N22: H 2.96; D 3.54; Y 2.41; L 2.56; W 1.95; E 3.92; F 1.93; G 2.84; S 3.27; K 2.94; R 2.71; T 2.88; I 2.77; Q 3.37; V 2.55; A 2.92; C 2.53; P 3.4; M 2.66
L21: V 3.54; M 3.4; W 3.17; G 3.83; H 4.05; Y 3.18; R 3.7; E 4.02; K 4.25; C 3.54; N 3.65; T 3.84; P 4.08; F 3.16; Q 4; A 3.83; I 3.35; D 4.05; S 3.8
G23: E 3.69; I 2.48; S 3.01; K 3.36; A 2.96; R 3.37; V 2.61; H 2.9; D 3.57; C 2.63; N 3.9; T 3.25; Q 3.4; L 2.63; P 2.56; Y 2.35; M 2.46; W 2.33; F 2.37

Variants of: B2
Experiment: as above
Conditions: c terminus: a fixed tail appended

Protein stability index: each site, then its substitutions
H5: Q 2.79; L 3.01; G 3.35; I 2.03; P 2.39; K 2.55; R 2.96; E 3.63; D 3.49; W 2.74; N 3.18; Y 2.97; F 3.26; S 2.83; T 2.48; V 1.63; A 3.83; C 2.4; M 3.33
G11: N 3.59; C 2.31; F 2.63; D 3.98; R 3.53; L 2.63; Y 1.56; E 4.53; T 2.48; S 3.48; H 2.68; V 2.32; W 1.36; I 1.58; K 3.34; A 2.67; M 2.05; Q 3.37; P 3.94
K6: R 3.97; S 3.54; M 3.35; V 3.41; Q 4.09; H 3.51; D 3.28; I 2.63; T 2.15; P 2.12; F 1.84; L 2.36; A 4.37; E 4.41; Y 2.72; N 3.25; W 2.17; C 3.45; G 3.03
P12: E 4.48; V 2.05; G 3.09; Q 4.11; H 5.06; W 3.49; R 3.88; T 3.18; S 3.86; M 3.24; K 3.5; C 3.09; L 3.46; F 2.41; A 3.84; N 4.09; Y 3.73; D 4.51; I 3.03
T10: A 3.47; C 2.92; N 3.58; F 2.4; Q 3.8; K 2.65; P 3.68; G 3.06; S 3.31; D 4.59; Y 2.6; R 2.52; V 3.5; W 2.56; E 3.83; I 2.86; M 2.55; L 2.49; H 2.68
G13: N 3.77; E 4.3; R 2.41; L 2.9; A 4.96; I 2.3; P 2.43; H 4.02; D 4.82; F 2.11; C 3.65; S 3.83; Q 4.07; T 3.37; M 3.64; K 3.15
C4: I 3.16; T 1.5; S 1.38; N 1.9; K 1.15; P 2.5; Q 2.01; A 1.36; D 1.6; R 1.94; E 1.07; W 1.88; F 1.93; G 1.7; M 2.12; L 1.39; H 1.6; Y 2.04
C1: M 2.03; A 2.02; D 2.78; R 3; G 2.07; S 2.58; L 1.94; K 2.16; H 1.83; N 2.24; E 2.76; P 2.69; T 1.94; Y 2.84; Q 1.8; I 1.52
H2: N 3.65; W 2.61; I 2.46; Q 3.4; E 3.07; D 4.28; S 2.73; P 2.9; F 2.76; T 2.87; A 2.71; R 2.59; G 3.31; L 2.78; Y 2.74; V 2.44; C 2.45; M 2.49; K 2.91
Y9: D 4.9; P 3.64; R 4.11; W 2.34; K 3.29; V 3.19; I 2.72; E 4.6; A 4.31; Q 3.93; L 3.97; C 3.39; H 3.62; S 4.28; F 3.16; N 3.83; M 4.14; T 3.27; G 3.76
K7: T 3.98; L 4.3; P 2.55; Y 4.2; M 3.86; I 3.73; C 3.63; W 3.27; E 4.14; V 4.09; Q 4.11; A 3.92; D 4.16; N 4.21; R 3.48; G 3.27; H 3.25; S 3.66; F 4.02
L8: I 3.67; Q 2.93; S 2.57; W 2.66; R 1.37; V 4.12; K 2.42; C 3.16; P 3.1; N 2.97; A 2.33; Y 2.33; F 2.44; E 3.96; D 3.37; M 4.63; H 3.14; T 3.02; G 3.61
I3: Y 3.43; S 2.58; W 2.73; G 2.48; E 2.37; F 2.34; H 3.67; R 2.52; V 2.51; T 3.03; Q 2.44; C 2.54; A 2.17; P 1.99; K 3.1; M 2.73; D 2.24; L 3.09; N 2.19
